Reference: patent US8367390B2, “Galactanase variants” (Novozymes A/S, priority 2002, dated 2013)

Legend:
Format in all cases: biochemical
[1] = Degradation of MeGal3, products by HPAE-PAD; conditions: for Gal2 in reaction products / Gal3 in reaction products / Gal in reaction products / MeGal2 in reaction products / MeGal3 in reaction products / MeGal in reaction products: MeGal3 0.25 mg/ml, pH 6.5, 37° C.
Experimental: (§1) The activity on the galacto-oligosaccharide substrates prepared as described above and on the commercially available galactobiose (Gal2, Megazyme) was studied for the four purified galactanases HIGAL, MTGAL, AAGAL and BLGAL. The buffers and temperatures used were: 25 mM sodium acetate, 0.5 mM CaCl2, 0.005% Triton X-100, pH 6.5 at 37° C. for HIGAL and MTGAL, 50 mM sodium acetate, 1 mM CaCl2, pH 4 at 30° C. for AAGAL and 50 mM Mes, 1 mM CaCl2, pH 6.5 at 30° C. for BLGAL. Enzyme concentrations used were 0.8 μg/ml for HIGAL, 0.2 microgram/ml for MTGAL, and 10 micrograms/ml for AAGAL and BLGAL. With HIGAL and MTGAL substrate concentrations were all 0.25 mg/ml, whereas 0.34 mg/ml Gal2, 0.050 mg/ml Gal3 and 0.067 mg/ml Gal4 were used for AAGAL and BLGAL. Enzyme activity in samples withdrawn after various incubation times was inactivated by heating to 95° C. for 10 min. Compositions of reaction products were analysed using HPAE-PAD (Dionex) applying a PA-100 column and a linear gradient of sodium acetate (0-0.18 M) in 0.15 M NaOH. Response factors of the individual carbohydrates were estimated from reference runs with MeGal3, MeGal4, Gal, Gal2, Gal3 and Gal4. Selected results are shown in Tables 2-8 below (the figures indicating weight percentage of glactooligosaccharides).

[2] = Degradation of MeGal4, products by HPAE-PAD; conditions: for Gal2 in reaction products / Gal3 in reaction products / Gal4 in reaction products / Gal in reaction products / MeGal2 in reaction products / MeGal3 in reaction products / MeGal4 in reaction products / MeGal in reaction products: MeGal4 0.25 mg/ml, pH 6.5, 37° C.
Experimental: as §1

[3] = Activity on galactotriose (Gal3); conditions: up to 24 hours; buffer, pH and temperature per enzyme
Experimental: as §1

B1: HIGAL: GH Family 53 galactanase from Humicola insolens, SEQ ID NO: 2 (wild type parent) (protein, listed as Humicola insolens)
chain: ALQYKGVDWSSVMVEERAGVRYKNVNGQEKPLEYILAENGVNMVRQRVWVNPWDGNYNLDYNIQLARRAKAAGLGLYINFHYSDTWADPAHQTTPAGWPSDINNLAWKLYNYTLDSMNRFADAGIQVDIVSIGNEITQGLLWPLGKTNNWYNIARLLHSAAWGVKDSRLNPKPKIMVHLDNGWNWDTQNWWYTNVLSQGPFEMSDFDMMGVSFYPFYSASATLDSLRRSLNNMVSRWGKEVAVVETNWPTSCPYPRYQFPADVRNVPFSAAGQTQYIQSVANVVSSVSKGVGLFYWEPAWIHNANLGSSCADNTMFTPSGQALSSLSVFHRI
modifications: mat_peptide (1)..()
Question: For B1, which “Gal2 in reaction products” value ([1]; incubation time 0.0 hours) is on record?
Answer: Its value is 0.0 weight percentage.

Question: What about the “Gal3 in reaction products” value ([1]; incubation time 0.0 hours) of the same molecule?
Answer: Its value is 0.0 weight percentage.

Question: And the “Gal in reaction products” value ([1]; incubation time 0.0 hours)?
Answer: Its value is 0.0 weight percentage.

Question: And the “MeGal2 in reaction products” value ([1]; incubation time 0.0 hours)?
Answer: The value was 0.0 weight percentage.

Question: And the “MeGal3 in reaction products” value ([1]; incubation time 0.0 hours)?
Answer: The value was 100.0 weight percentage.

Question: And the “MeGal in reaction products” value ([1]; incubation time 0.0 hours)?
Answer: Its value is 0.0 weight percentage.

Question: And the “Gal2 in reaction products” value ([1]; incubation time 0.5 hours)?
Answer: Its value is 3.9 weight percentage.

Question: And the “Gal3 in reaction products” value ([1]; incubation time 0.5 hours)?
Answer: Its value is 1.2 weight percentage.

Question: And the “Gal in reaction products” value ([1]; incubation time 0.5 hours)?
Answer: The value was 0.0 weight percentage.

Question: And the “MeGal2 in reaction products” value ([1]; incubation time 0.5 hours)?
Answer: Its value is 3.3 weight percentage.

Question: And the “MeGal3 in reaction products” value ([1]; incubation time 0.5 hours)?
Answer: Its value is 80.3 weight percentage.

Question: And the “MeGal in reaction products” value ([1]; incubation time 0.5 hours)?
Answer: Its value is 11.4 weight percentage.

Question: What about the “Gal2 in reaction products” value ([1]; incubation time 2.2 hours) of the same molecule?
Answer: Its value is 12.5 weight percentage.

Question: And the “Gal3 in reaction products” value ([1]; incubation time 2.2 hours)?
Answer: The value was 3.3 weight percentage.

Question: What about the “Gal in reaction products” value ([1]; incubation time 2.2 hours) of the same molecule?
Answer: Its value is 2.3 weight percentage.

Question: And the “MeGal2 in reaction products” value ([1]; incubation time 2.2 hours)?
Answer: Its value is 3.7 weight percentage.

Question: What about the “MeGal3 in reaction products” value ([1]; incubation time 2.2 hours) of the same molecule?
Answer: The value was 59.7 weight percentage.

Question: And the “MeGal in reaction products” value ([1]; incubation time 2.2 hours)?
Answer: Its value is 18.4 weight percentage.

Question: What about the “Gal2 in reaction products” value ([1]; incubation time 5.0 hours) of the same molecule?
Answer: Its value is 20.2 weight percentage.

Question: And the “Gal3 in reaction products” value ([1]; incubation time 5.0 hours)?
Answer: The value was 10.6 weight percentage.

Question: What about the “Gal in reaction products” value ([1]; incubation time 5.0 hours) of the same molecule?
Answer: The value was 3.0 weight percentage.

Question: And the “MeGal2 in reaction products” value ([1]; incubation time 5.0 hours)?
Answer: Its value is 5.2 weight percentage.

Question: And the “MeGal3 in reaction products” value ([1]; incubation time 5.0 hours)?
Answer: The value was 24.2 weight percentage.

Question: What about the “MeGal in reaction products” value ([1]; incubation time 5.0 hours) of the same molecule?
Answer: The value was 36.8 weight percentage.

Question: And the “Gal2 in reaction products” value ([1]; incubation time 72.0 hours)?
Answer: The value was 36.2 weight percentage.

Question: And the “Gal3 in reaction products” value ([1]; incubation time 72.0 hours)?
Answer: The value was 8.0 weight percentage.

Question: And the “Gal in reaction products” value ([1]; incubation time 72.0 hours)?
Answer: The value was 17.1 weight percentage.

Question: What about the “MeGal2 in reaction products” value ([1]; incubation time 72.0 hours) of the same molecule?
Answer: The value was 4.2 weight percentage.

Question: What about the “MeGal3 in reaction products” value ([1]; incubation time 72.0 hours) of the same molecule?
Answer: Its value is 0.0 weight percentage.

Question: And the “MeGal in reaction products” value ([1]; incubation time 72.0 hours)?
Answer: The value was 34.6 weight percentage.

Question: And the “Release of MeGal versus MeGal2 from MeGal3” value ([1]; in words)?
Answer: The value was “much higher release of MeGal than MeGal2”.

Question: What about the “Gal2 in reaction products” value ([2]; incubation time 0.0 hours) of the same molecule?
Answer: Its value is 0.0 weight percentage.

Question: What about the “Gal3 in reaction products” value ([2]; incubation time 0.0 hours) of the same molecule?
Answer: The value was 0.0 weight percentage.

Question: And the “Gal4 in reaction products” value ([2]; incubation time 0.0 hours)?
Answer: Its value is 0.0 weight percentage.

Question: What about the “Gal in reaction products” value ([2]; incubation time 0.0 hours) of the same molecule?
Answer: Its value is 0.0 weight percentage.

Question: What about the “MeGal2 in reaction products” value ([2]; incubation time 0.0 hours) of the same molecule?
Answer: Its value is 4.7 weight percentage.

Question: What about the “MeGal3 in reaction products” value ([2]; incubation time 0.0 hours) of the same molecule?
Answer: The value was 14.8 weight percentage.

Question: And the “MeGal4 in reaction products” value ([2]; incubation time 0.0 hours)?
Answer: Its value is 79.0 weight percentage.

Question: What about the “MeGal in reaction products” value ([2]; incubation time 0.0 hours) of the same molecule?
Answer: Its value is 1.6 weight percentage.

Question: And the “Gal2 in reaction products” value ([2]; incubation time 0.5 hours)?
Answer: Its value is 6.3 weight percentage.

Question: And the “Gal3 in reaction products” value ([2]; incubation time 0.5 hours)?
Answer: The value was 20.6 weight percentage.

Question: What about the “Gal4 in reaction products” value ([2]; incubation time 0.5 hours) of the same molecule?
Answer: Its value is 3.3 weight percentage.

Question: And the “Gal in reaction products” value ([2]; incubation time 0.5 hours)?
Answer: Its value is 2.3 weight percentage.

Question: And the “MeGal2 in reaction products” value ([2]; incubation time 0.5 hours)?
Answer: The value was 12.6 weight percentage.

Question: And the “MeGal3 in reaction products” value ([2]; incubation time 0.5 hours)?
Answer: The value was 17.2 weight percentage.

Question: And the “MeGal4 in reaction products” value ([2]; incubation time 0.5 hours)?
Answer: Its value is 25.5 weight percentage.

Question: What about the “MeGal in reaction products” value ([2]; incubation time 0.5 hours) of the same molecule?
Answer: The value was 12.1 weight percentage.

Question: What about the “Gal2 in reaction products” value ([2]; incubation time 2.0 hours) of the same molecule?
Answer: Its value is 5.0 weight percentage.

Question: And the “Gal3 in reaction products” value ([2]; incubation time 2.0 hours)?
Answer: Its value is 16.0 weight percentage.

Question: What about the “Gal4 in reaction products” value ([2]; incubation time 2.0 hours) of the same molecule?
Answer: Its value is 3.2 weight percentage.

Question: What about the “Gal in reaction products” value ([2]; incubation time 2.0 hours) of the same molecule?
Answer: Its value is 1.6 weight percentage.

Question: What about the “MeGal2 in reaction products” value ([2]; incubation time 2.0 hours) of the same molecule?
Answer: Its value is 13.2 weight percentage.

Question: What about the “MeGal3 in reaction products” value ([2]; incubation time 2.0 hours) of the same molecule?
Answer: Its value is 18.4 weight percentage.

Question: What about the “MeGal4 in reaction products” value ([2]; incubation time 2.0 hours) of the same molecule?
Answer: The value was 32.1 weight percentage.

Question: What about the “MeGal in reaction products” value ([2]; incubation time 2.0 hours) of the same molecule?
Answer: The value was 10.5 weight percentage.

Question: And the “Gal2 in reaction products” value ([2]; incubation time 5.0 hours)?
Answer: The value was 13.8 weight percentage.

Question: And the “Gal3 in reaction products” value ([2]; incubation time 5.0 hours)?
Answer: The value was 19.7 weight percentage.

Question: What about the “Gal4 in reaction products” value ([2]; incubation time 5.0 hours) of the same molecule?
Answer: Its value is 3.2 weight percentage.

Question: What about the “Gal in reaction products” value ([2]; incubation time 5.0 hours) of the same molecule?
Answer: The value was 7.4 weight percentage.

Question: And the “MeGal2 in reaction products” value ([2]; incubation time 5.0 hours)?
Answer: The value was 16.1 weight percentage.

Question: What about the “MeGal3 in reaction products” value ([2]; incubation time 5.0 hours) of the same molecule?
Answer: The value was 15.5 weight percentage.

Question: And the “MeGal4 in reaction products” value ([2]; incubation time 5.0 hours)?
Answer: Its value is 7.6 weight percentage.

Question: And the “MeGal in reaction products” value ([2]; incubation time 5.0 hours)?
Answer: The value was 16.6 weight percentage.

Question: And the “Gal2 in reaction products” value ([2]; incubation time 24.0 hours)?
Answer: Its value is 25.3 weight percentage.

Question: And the “Gal3 in reaction products” value ([2]; incubation time 24.0 hours)?
Answer: The value was 9.1 weight percentage.

Question: And the “Gal4 in reaction products” value ([2]; incubation time 24.0 hours)?
Answer: Its value is 1.7 weight percentage.

Question: What about the “Gal in reaction products” value ([2]; incubation time 24.0 hours) of the same molecule?
Answer: The value was 26.4 weight percentage.

Question: What about the “MeGal2 in reaction products” value ([2]; incubation time 24.0 hours) of the same molecule?
Answer: Its value is 13.4 weight percentage.

Question: What about the “MeGal3 in reaction products” value ([2]; incubation time 24.0 hours) of the same molecule?
Answer: Its value is 5.0 weight percentage.

Question: And the “MeGal4 in reaction products” value ([2]; incubation time 24.0 hours)?
Answer: Its value is 0.0 weight percentage.

Question: And the “MeGal in reaction products” value ([2]; incubation time 24.0 hours)?
Answer: The value was 19.1 weight percentage.

Question: And the “Products from MeGal4” value ([2]; in words, buffer, pH and temperature per enzyme)?
Answer: Its value is “initial release mainly of MeGal, MeGal2 and Gal3 and some Gal2 but little Gal”.

Question: What about the “Activity on Gal3, products” value [3] of the same molecule?
Answer: Its value is “degraded Gal3 to Gal2 and Gal”.
